From paper PMC12455949 (Journal of Virology, 2025)
“And” between values parts separate entries of the source, which are not always exact repeats. Equal entries are not always repeated.

B1: mAb TJ5-1 (antibody, V domains shown)
VH: EVQLVQSGAEVKKPGASVKVSCKASGYTFTGFYLHWVRQAPGQGLEWMGWINPHSGDTDFAQKFQGKVTMTRDTSSNTVYMDVNRLTSDDTAVYYCVKNDIVLGMGVWGQGTTVIVSS
VL: QSVLTQPPSVSGAPGQRVTISCTGSSSNIGAGYNVYWFQQLPPTAPKLLNYGDNNRPSGVPDRFSASKSGTSASLAITGLQAEDEAEYYCQSYDSSLNAYVFGTGTKVTVL
B2: mAb TJ5-1 (antibody, V domains shown)
VH: B1 VH
VL: B1 VL
B3: mAb TJ5-13 (antibody, V domains shown)
V domain 1: QVQLVQSGAEVKKPGSSVKVSCEASGDTFTTYSGINWVRQAPGQGLEWMGGVLPNFGSPNYAQRFQGRITITVDRSTSLVHMELTNLRSDDTAVYYCTETGAYNSVGYFPYFQFRGQGTLVSVSS
V domain 2: QSVLTQPPSVSGAPGQRVTISCTGSSSNIGADYDVHWYQQLPGTAPKLLIFGNNNRPSGVPDRFSGSKSGTSASLAITGLQAEDEADYYCQSFDKSLSGSFVFGTGTKVTGQ
B4: mAb TJ5-13 (antibody, V domains shown)
V domain 1: B3 V domain 1
V domain 2: B3 V domain 2
B5: mAb #1664 (antibody, V domains shown)
VH: EVQVMQSGAEARMTGATVKISCKASGYTFSDYFLHWVKQAPGKGLEWMGLVDVDNGEVRYAEKFQGRVTITADTSTETAYLEMTTVTSGDTAVYYCASTTPRGGNPSVYNYFFVDVWGKGTTVTVSS
VL: QPVLTQSSSASASLGSSVKLTCTLSSGHDNYIIAWHQQQPGKAPRYLMQVGAGGTYNKGSGVPHRFSGSSSGADRYLTISNLQSDDEADYYCETWDSKTVFGGGTTLTVL
notes: copies: 2 + 2
B6: mAb #1664 (antibody, V domains shown)
VH: B5 VH
VL: B5 VL

What was measured:
Test in all cases: BLI
Settings in all cases: both partners purified
[1] = molecular target: A/Switzerland/9715293/2013 HA, recombinant soluble (rHA) (Influenza A virus …, strain)
[2] = molecular target: A/Victoria/361/2011 HA, recombinant soluble (rHA) (Influenza A virus A/Victoria/361/2011 …, UniProt A0A097PF39, strain)
[3] = molecular target: COBRA HA TJ2, recombinant soluble (rHA) (Influenza A virus H3, designed COBRA TJ2)
[4] = molecular target: COBRA HA J4, recombinant soluble (rHA) (Influenza A virus H3, designed COBRA J4)
[5] = molecular target: A/Texas/50/2012 HA, recombinant soluble (rHA) (Influenza A virus A/Texas/50/2012 (H3N2), UniProt R4L1D1, strain)
[6] = molecular target: A/Perth/16/2009 HA, recombinant soluble (rHA) (Influenza A virus A/Perth/16/2009 (H3N2), UniProt C6KNH7, strain)
[7] = molecular target: A/Panama/2007/1999 HA, recombinant soluble (rHA) (Influenza A virus A/Panama/2007/1999 …, UniProt Q1K9M3, strain)
[8] = molecular target: A/Port Chalmers/1/1973 HA, recombinant soluble (rHA) (Influenza A virus A/Port …, UniProt Q1PUD9, strain)
A/Victoria/361/2011 HA = A/Victoria/361/2011 HA (Influenza A virus A/Victoria/361/2011 …, UniProt A0A097PF39, strain)
A/Panama/2007/1999 HA = A/Panama/2007/1999 HA (Influenza A virus A/Panama/2007/1999 …, UniProt Q1K9M3, strain)
A/Texas/50/2012 HA = A/Texas/50/2012 HA (Influenza A virus A/Texas/50/2012 (H3N2), UniProt R4L1D1, strain)
[9] = molecular target: A/Switzerland/9715293/2013 HA (Influenza A virus …, strain)
A/Perth/16/2009 HA = A/Perth/16/2009 HA (Influenza A virus A/Perth/16/2009 (H3N2), UniProt C6KNH7, strain)
[10] = molecular target: COBRA HA NG2, recombinant soluble (rHA) (Influenza A virus H3, designed COBRA NG2)
[11] = molecular target: A/Port Chalmers/1/1973 HA (Influenza A virus A/Port …, UniProt Q1PUD9, strain)

| Binder | Kd [1] | Kd [2] | Kd [4] | Kd [6] | Kd [7] | Kd (A/Victoria/361/2011 HA) [nM] | koff (A/Victoria/361/2011 HA) [s⁻¹] | kon (A/Victoria/361/2011 HA) [M⁻¹ s⁻¹] | Kd (A/Panama/2007/1999 HA) [nM] | koff (A/Panama/2007/1999 HA) [s⁻¹] | kon (A/Panama/2007/1999 HA) [M⁻¹ s⁻¹] | Kd (A/Texas/50/2012 HA) [nM] | koff (A/Texas/50/2012 HA) [s⁻¹] | kon (A/Texas/50/2012 HA) [M⁻¹ s⁻¹] | Kd [9] [nM] | koff [9] [s⁻¹] | kon [9] [M⁻¹ s⁻¹] | Kd (A/Perth/16/2009 HA) [nM] | koff (A/Perth/16/2009 HA) [s⁻¹] | kon (A/Perth/16/2009 HA) [M⁻¹ s⁻¹] | further results |
| --- | --- | --- | --- | --- | --- | --- | --- | --- | --- | --- | --- | --- | --- | --- | --- | --- | --- | --- | --- | --- | --- |
| B1 | 0.59 nM and 0.67 nM | 0.62 nM and 1.1 nM | 0.3 nM and 0.16 nM | 0.13 nM and 0.14 nM | 0.15 nM and 0.17 nM | – | – | – | – | – | – | – | – | – | – | – | – | – | – | – | Kd [3]: 3.28 nM and 8.01 nM; Kd [5]: 0.21 nM and 0.39 nM; Kd [8]: 7.13 nM and 13.1 nM |
| B2 | – | – | – | – | – | 0.86 | 0.000195 | 228000 | 0.16 | 4.97e-05 | 315000 | 0.3 | 8.93e-05 | 307000 | 0.63 | 0.00019 | 303000 | 0.14 | 3.66e-05 | 266000 | – |
| B3 | 1.32 nM and 2.09 nM | 0.39 nM and 0.8 nM | 0.13 nM and 0.39 nM | 0.22 nM and 0.33 nM | 1.88 nM and 3.48 nM | – | – | – | – | – | – | – | – | – | – | – | – | – | – | – | Kd [10]: 2.34 nM and 6.81 nM; binding result [8]: no binding (tested: 1350 nM) |
| B4 | – | – | – | – | – | 0.59 | 0.000128 | 218000 | 1.14 | 0.000304 | 114000 | 0.42 | 9.53e-05 | 257000 | 1.71 | 0.000166 | 98600 | 0.27 | 6.03e-05 | 226000 | binding result [11]: no binding (tested: 100 nM rHA (exploratory assays)) |
| B5 | 286 nM and 222 nM | – | 12.8 nM and 17.7 nM | 0.42 nM and 0.2 nM | 18.2 nM and 14.7 nM | – | – | – | – | – | – | – | – | – | – | – | – | – | – | – | Kd [3]: 0.47 nM and 0.43 nM; Kd [10]: 135 nM and 143 nM; Kd [5]: 0.73 nM and 1.13 nM; binding result [8]: no binding (tested: 1350 nM) |
| B6 | – | – | – | – | – | 0.84 | 8.98e-05 | 119000 | 16.4 | 0.00179 | 109000 | 0.93 | 9.08e-05 | 98300 | 254 | 0.00379 | 15000 | 0.31 | 3.36e-05 | 108000 | binding result [11]: no binding (tested: 100 nM rHA (exploratory assays)) |
